Results from publication PMC13031973 (Nature Communications, 2026).

Columns and labels:
[1] = biological target: T1, purified proteasome subunit RPN1 (PSMD2) (human, UniProt Q13200 1-908); test: ITC
[2] = biological target: T1, purified proteasome subunit RPN1 (PSMD2); test: SPR

T1 sequence (Q13200 whole entry): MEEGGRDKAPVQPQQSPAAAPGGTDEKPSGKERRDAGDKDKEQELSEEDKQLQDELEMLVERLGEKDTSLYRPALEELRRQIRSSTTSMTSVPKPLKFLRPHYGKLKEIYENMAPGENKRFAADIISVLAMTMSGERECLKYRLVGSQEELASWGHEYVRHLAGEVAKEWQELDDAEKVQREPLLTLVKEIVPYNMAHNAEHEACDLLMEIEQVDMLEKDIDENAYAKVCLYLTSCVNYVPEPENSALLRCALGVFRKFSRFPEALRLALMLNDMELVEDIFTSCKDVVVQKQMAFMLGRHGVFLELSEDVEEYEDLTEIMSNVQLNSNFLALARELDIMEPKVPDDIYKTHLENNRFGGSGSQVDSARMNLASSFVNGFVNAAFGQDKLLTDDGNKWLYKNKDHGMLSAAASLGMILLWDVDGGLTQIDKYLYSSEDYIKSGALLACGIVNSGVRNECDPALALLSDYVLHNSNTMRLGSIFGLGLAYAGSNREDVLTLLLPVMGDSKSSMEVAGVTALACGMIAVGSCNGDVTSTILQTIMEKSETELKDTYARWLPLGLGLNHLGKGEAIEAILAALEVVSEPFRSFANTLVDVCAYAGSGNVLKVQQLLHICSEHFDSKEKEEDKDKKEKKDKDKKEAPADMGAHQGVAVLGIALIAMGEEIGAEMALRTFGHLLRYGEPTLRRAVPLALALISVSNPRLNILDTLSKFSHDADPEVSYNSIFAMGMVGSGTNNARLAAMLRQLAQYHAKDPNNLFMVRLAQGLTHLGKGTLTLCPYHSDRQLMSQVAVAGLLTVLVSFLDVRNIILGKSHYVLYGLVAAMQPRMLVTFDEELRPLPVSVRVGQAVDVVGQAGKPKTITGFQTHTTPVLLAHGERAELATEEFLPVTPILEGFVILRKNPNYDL

| Binder | Kd [1] | Kd [2] |
| --- | --- | --- |
| MIDN(337-468) (domain or fragment) SPASPAPDLAPRTTSCEKLTAAPSASLLQGQSQIRMCKPPGDRLRQTENRATRCKVERLQLLLQQKRLRRKARRDARGPYHWSPSRKAGRSDSSSSGGGGSPSEASGLGLDFEDSVWKPEVNPDIKSEFVVA | ~130 nM | 390 nM |
| MIDN(337-432) (domain or fragment) SPASPAPDLAPRTTSCEKLTAAPSASLLQGQSQIRMCKPPGDRLRQTENRATRCKVERLQLLLQQKRLRRKARRDARGPYHWSPSRKAGRSDSSSS | ~146 nM | 663 nM |
